From paper doi:10.1101/2023.04.06.535761 (bioRxiv, 2023)
Residue numbers refer to the chain shown, from its start. Names and notes keep the numbering of the source.

T1: StrepII-GFP-RTCB (human, UniProt Q9Y3I0 1-505)
T1 sequence (looked up): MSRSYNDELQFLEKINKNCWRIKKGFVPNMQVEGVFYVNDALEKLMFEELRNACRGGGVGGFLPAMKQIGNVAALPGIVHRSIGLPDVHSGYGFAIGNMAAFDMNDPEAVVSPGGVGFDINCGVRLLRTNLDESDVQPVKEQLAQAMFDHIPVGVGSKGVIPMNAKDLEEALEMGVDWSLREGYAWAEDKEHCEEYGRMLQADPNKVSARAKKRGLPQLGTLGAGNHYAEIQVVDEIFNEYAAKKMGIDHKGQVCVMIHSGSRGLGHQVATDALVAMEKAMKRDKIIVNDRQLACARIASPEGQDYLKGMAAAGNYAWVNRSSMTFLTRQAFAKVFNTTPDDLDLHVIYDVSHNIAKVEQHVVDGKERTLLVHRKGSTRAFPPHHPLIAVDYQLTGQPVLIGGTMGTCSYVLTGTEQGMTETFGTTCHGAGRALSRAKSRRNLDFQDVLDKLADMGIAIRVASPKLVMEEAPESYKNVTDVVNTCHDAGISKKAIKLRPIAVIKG

T2: RTCB (un-guanylylated, apo-RTCB) (human, UniProt Q9Y3I0 1-505)
T2 sequence (looked up): T1 sequence (looked up)

B1: PYROXD1 Δ500 (domain or fragment, human, UniProt Q8WU10 1-499, looked up)
chain: MEAARPPPTAGKFVVVGGGIAGVTCAEQLATHFPSEDILLVTASPVIKAVTNFKQISKILEEFDVEEQSSTMLGKRFPNIKVIESGVKQLKSEEHCIVTEDGNQHVYKKLCLCAGAKPKLICEGNPYVLGIRDTDSAQEFQKQLTKAKRIMIIGNGGIALELVYEIEGCEVIWAIKDKAIGNTFFDAGAAEFLTSKLIAEKSEAKIAHKRTRYTTEGRKKEARSKSKADNVGSALGPDWHEGLNLKGTKEFSHKIHLETMCEVKKIYLQDEFRILKKKSFTFPRDHKSVTADTEMWPVYVELTNEKIYGCDFIVSATGVTPNVEPFLHGNSFDLGEDGGLKVDDHMHTSLPDIYAAGDICTTSWQLSPVWQQMRLWTQARQMGWYAAKCMAAASSGDSIDMDFSFELFAHVTKFFNYKVVLLGKYNAQGLGSDHELMLRCTKGREYIKVVMQNGRMMGAVLIGETDLEETFENLILNQMNLSSYGEDLLDPNIDIEDYF
B2: PYROXD1 (wild type) (enzyme, human, UniProt Q8WU10 1-500, looked up)
chain: MEAARPPPTAGKFVVVGGGIAGVTCAEQLATHFPSEDILLVTASPVIKAVTNFKQISKILEEFDVEEQSSTMLGKRFPNIKVIESGVKQLKSEEHCIVTEDGNQHVYKKLCLCAGAKPKLICEGNPYVLGIRDTDSAQEFQKQLTKAKRIMIIGNGGIALELVYEIEGCEVIWAIKDKAIGNTFFDAGAAEFLTSKLIAEKSEAKIAHKRTRYTTEGRKKEARSKSKADNVGSALGPDWHEGLNLKGTKEFSHKIHLETMCEVKKIYLQDEFRILKKKSFTFPRDHKSVTADTEMWPVYVELTNEKIYGCDFIVSATGVTPNVEPFLHGNSFDLGEDGGLKVDDHMHTSLPDIYAAGDICTTSWQLSPVWQQMRLWTQARQMGWYAAKCMAAASSGDSIDMDFSFELFAHVTKFFNYKVVLLGKYNAQGLGSDHELMLRCTKGREYIKVVMQNGRMMGAVLIGETDLEETFENLILNQMNLSSYGEDLLDPNIDIEDYFD
B3: PYROXD1 D500A (enzyme, human, UniProt Q8WU10 1-500, looked up)
chain: B2 chain with D500A

Key:
StrepII-GFP-RTCB [1] = molecular target: T1, StrepII-GFP-RTCB; test: pull-down
StrepII-GFP-RTCB [2] = molecular target: T1, StrepII-GFP-RTCB; test: pull-down; remark: listed apart in the source
[3] = molecular target: T2, RTCB (un-guanylylated, apo-RTCB); test: cryo-EM structure

Binder	binding result (StrepII-GFP-RTCB [1])	half-life of the complex upon NADH removal (StrepII-GFP-RTCB [2])	stoichiometry N [3]
B1	binds		
B2		~2 min	1
B3	binds		
